Molecular target: T1, recombinant human MCP-1 (CCL2) (human, UniProt P13500 24-99)
T1 construct: Bought recombinant protein; also called RHMCP-1; monocyte chemoattractant protein-1
Assay: direct ELISA (O.D. 450 nm), chemokine coated at 100 ng/ml, CCR2(E3)-IgG at 5 ug/ml; reference: other human chemokines tested
Method: ELISA—The binding specificity of CCR2(E3)-IgG to various commercially available human chemokines (PeproTech, Rocky Hill, N.J.) was determined by direct ELISA as follows: 96-well ELISA plates (Nunc, Roskilde, Denemark) were coated with 100 ng/ml of each chemokine, washed and blocked with 1% BSA/PBS. CCR2(E3)-IgG at a concentration 5 μg/ml was then added. HRP labeled mouse anti human Ig (Jackson, Pa.) was added as a second Antibody. Results are shown as O.D. reading at 450 nm. Anti CCL2 monoclonal antibody (MAB679; R&D Systems, Minneapolis, […].) was used as a positive control (1 μg/ml).

T1 sequence (P13500 24-99 limits assumed): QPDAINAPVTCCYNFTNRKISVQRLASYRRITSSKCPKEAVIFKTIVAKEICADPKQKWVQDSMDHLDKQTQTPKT

fold binding against other factors tested: ~4 fold
B1: CCR2(E3)-IgG fusion protein (Fc fusion)
chain: GLSNCESTSQLDQATQVTET
notes: also called Ig-E3; CCR2-IgG; not shown: constant region (Hinge-CH2-CH3) of human IgG1 heavy chain, ligated downstream of CCR2 (E3)

From patent publication US20110033521A1 (RAPPAPORT FAMILY INSTITUTE FOR RESEARCH IN THE MEDICAL …, published 2011)
